The record followed here is patent publication US20180371093A1 (Novartis, published 2018).

Where only a bound is given, the exact number is not on record here.

For assay [1], the target named is T1, Programmed Death 1 (PD-1) (UniProt Q15116 25-167, limits assumed). The assay can be described thus: cell-based or functional assay.
In assay [2] the target is T1, Programmed Death 1 (PD-1). Kind of assay: rank in competition binding against labelled murine mAb BAP049, 2nd experiment.
The target of assay [3] is T1, Programmed Death 1 (PD-1). Kind of assay: rank among the 16 humanized clones by FACS binding data.
The target of assay [4] is T1, Programmed Death 1 (PD-1). The assay can be described thus: FACS ligand blocking: binding of PD-L1-Ig to PD-1 at increasing mAb concentration (legend paragraph 212 names 'PD-L1-Ig and PD-L2-Ig' for FIG. 8A).
Assay [5] deals with T1, Programmed Death 1 (PD-1). The assay can be described thus: rank in competition binding against labelled murine mAb BAP049, 1st experiment.

T1 sequence (Q15116 25-167 limits assumed): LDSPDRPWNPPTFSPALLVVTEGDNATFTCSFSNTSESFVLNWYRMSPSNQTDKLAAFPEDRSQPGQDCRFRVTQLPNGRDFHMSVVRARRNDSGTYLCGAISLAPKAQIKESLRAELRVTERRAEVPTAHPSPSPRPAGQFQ

B1: BAP049-Clone-E (antibody, human IgG4 S228P, kappa)
heavy: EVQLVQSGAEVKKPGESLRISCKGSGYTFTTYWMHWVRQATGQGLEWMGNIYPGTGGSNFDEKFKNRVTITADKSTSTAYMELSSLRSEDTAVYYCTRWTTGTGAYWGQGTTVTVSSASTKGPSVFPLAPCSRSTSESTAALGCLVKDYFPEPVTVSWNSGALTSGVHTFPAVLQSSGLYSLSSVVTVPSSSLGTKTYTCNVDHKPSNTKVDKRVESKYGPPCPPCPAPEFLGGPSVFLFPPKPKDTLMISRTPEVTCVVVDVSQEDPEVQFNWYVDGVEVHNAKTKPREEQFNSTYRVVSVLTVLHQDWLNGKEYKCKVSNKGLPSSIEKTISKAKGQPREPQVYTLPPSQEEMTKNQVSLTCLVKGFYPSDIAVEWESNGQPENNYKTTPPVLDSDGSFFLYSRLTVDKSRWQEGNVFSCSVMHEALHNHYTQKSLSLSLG
light: EIVLTQSPATLSLSPGERATLSCKSSQSLLDSGNQKNFLTWYQQKPGQAPRLLIYWASTRESGVPSRFSGSGSGTDFTFTISSLEAEDAATYYCQNDYSYPYTFGQGTKVEIKRTVAAPSVFIFPPSDEQLKSGTASVVCLLNNFYPREAKVQWKVDNALQSGNSQESVTEQDSKDSTYSLSSTLTLSKADYEKHKVYACEVTHQGLSSPVTKSFNRGEC
Turning to B1, in assay [1], the “ex vivo EC50 for PD-1 blockade (IL-2 change in SEB ex-vivo assay)” value came to 0.42 µg/mL.

B2: BAP049-hum10 (antibody, human IgG4 S228P, kappa)
heavy: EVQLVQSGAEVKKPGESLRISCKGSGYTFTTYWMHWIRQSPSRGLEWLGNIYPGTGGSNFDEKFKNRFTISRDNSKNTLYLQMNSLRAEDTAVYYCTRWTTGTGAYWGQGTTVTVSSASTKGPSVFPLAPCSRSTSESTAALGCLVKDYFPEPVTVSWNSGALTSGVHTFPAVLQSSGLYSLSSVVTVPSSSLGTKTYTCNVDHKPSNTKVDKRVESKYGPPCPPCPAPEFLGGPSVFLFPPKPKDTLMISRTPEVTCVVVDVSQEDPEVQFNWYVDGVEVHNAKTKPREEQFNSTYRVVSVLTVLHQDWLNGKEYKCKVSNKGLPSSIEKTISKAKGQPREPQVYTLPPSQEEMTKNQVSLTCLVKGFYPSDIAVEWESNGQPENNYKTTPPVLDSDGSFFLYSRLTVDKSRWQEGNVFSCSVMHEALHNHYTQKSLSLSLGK
light: B1 light
notes: Humanized mAb
On to B2, for which the “Competition Binding 2nd exp. (rank)” value in assay [2] was over 4 rank. The “Ranking FACS data” value in assay [3] is 7 rank. Further, the “IC50 (read off the curve)” value in assay [4] was about 1 µg/mL. In addition, the “Competition Binding 1st exp. (rank)” value in assay [5] was 6 rank.
